Reference: publication PMC11305080 (2024)

B2: HIT01-K21Q-R218E (cleavage-resistant variant of HIT01) (designed binder)
chain 1: DYSEDQEVKAPQLDHPDPGTERVAELLRCTKSVWRIPEQYLVVLREGTRDSHVQRTVSTLRAQAARRGHAIHIMHTYSGVFHGFLIKMSSEVLPMALKLPHVAYIEEDSSIFAQ
chain 2: SIPWNLQRIIQTKHETGKYTPPNDGAQVTVFLLDTSVQTDHREIEGKVMVTDFNSMPKEDGTRFHESASKCESHGTHIAGVLSGRDAGVARGVSVNTVRVLNCQGRGTVSGALAGLEYIRASLQAQPVSPVIILLPFVGGFSRTLNTACREMVHSGAVLIAAAGNYQDDACMYSPASEPEVITVGASNAADRPLSSGTTGTNLGRCVDVFAPGEDIISASGDCSTCFVSMSGTSQSAAHAAGIAAVLLNAYPSASPAEVLQLLRYHAVQRVINPDSLPPEHYLTTPDMVAALPTSAATGEKLLCRSVWSKRSGVGSFDTAVARCRHGEEMFSCSSYSPNGVHAGERIEIRDGQKVCEAHHGIGGQGVYAVARCCTGSRVKCHASASLHVGIDAECPSQEFQLTGCSSHYIRSQDVAQPSWPLHSNRKACPAGEGGTSHAFCCHAPNLECHLIEHHQSEFTKQVEVSCEDSWTLTGCNAVSHGSVTHAAYTRGNTCVIQMFGGDKGAAAIAICCRYRPLDQQSNNNHEQNT

Tests used:
Test in all cases: BLI
[1] = target: human proprotein convertase subtilisin/kexin type 9 (PCSK9) (human, UniProt Q8NBP7 153-692)
[2] = target: B2
J16 = target: J16

B1: AMG145 (evolocumab) IgG (antibody, V domains shown)
VH: EVQLVQSGAEVKKPGASVKVSCKASGYTLTSYGISWVRQAPGQGLEWMGWVSFYNGNTNYAQKLQGRGTMTTDPSTSTAYMELRSLRSDDTAVYYCARGYGMDVWGQGTTVTVSS
VL: ESALTQPASVSGSPGQSITISCTGTSSDVGGYNSVSWYQQHPGKAPKLMIYEVSNRPSGVSNRFSGSKSGNTASLTISGLQAEDEADYYCNSYTSTSMVFGGGTKLTVL
- Kd [1]: 170 pM
- Kd [2]: 190 pM

Binder: B2
- Kd (J16): 620 pM

B3: 1D05 Fab (Fab, V domains shown)
VH: QVQLVQSGAEVKKPGSSVKVSCKASGGTFNSHAISWVRQAPGQGLEWMGGINPILGIANYAQKFQGRVTITADESTSTAYMELSSLRSEDTAVYYCARHYEIQIGRYGMNVYYLMYRFASWGQGTLVTVSS
VL: DIQMTQSPSSLSASVGDRVTITCRASQGIRSALNWYQQKPGKAPKLLIYNGSTLQSGVPSRFSGSGSGTDFTLTISSLQPEDFAVYYCQQFDGDPTFGQGTKVEIK
- Kd [2]: 1830 pM
